# Data reported in article PMC6907008.
# What was measured:
# [1] = molecular target: T1, HisZea (Lmo2686) (Listeria monocytogenes EGD-e) (UniProt Q8Y3Z3); test: competition; conditions: EMSA: 50 mM Tris pH 8.0, 300 mM NaCl, 10% glycerol, 50 ug/mL BSA, 1 ug yeast tRNA, 20 min room temperature; pull-down: 25 mM Tris pH 8.0, 150 mM KCl, 5 mM …
# T1 sequence: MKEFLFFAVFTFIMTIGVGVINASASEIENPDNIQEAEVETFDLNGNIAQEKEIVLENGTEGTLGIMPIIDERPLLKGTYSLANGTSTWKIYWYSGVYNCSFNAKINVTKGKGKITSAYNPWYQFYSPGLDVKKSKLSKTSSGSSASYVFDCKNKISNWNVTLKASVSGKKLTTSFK
# [2] = molecular target: T1, HisZea (Lmo2686) (Listeria monocytogenes EGD-e); test: EMSA; conditions: EMSA: 50 mM Tris pH 8.0, 300 mM NaCl, 10% glycerol, 50 ug/mL BSA, 1 ug yeast tRNA, 20 min room temperature; pull-down: 25 mM Tris pH 8.0, 150 mM KCl, 5 mM …
Sequence,binding [1],binding [2]
GGGUGUAAAAUGCAGCUUGAGUAAAAUGAAUGAGUGUGUUGUUUACCCCCAGAUUUAAUUCUGUGGUAUAUCGCGUAACCGGCGGCUGCUAUGGUGAUGGUAUAUGAAGGUAAACUGCCCUGAUUUGGUUUUACGUCACGUUUGUUUUAUAC [rli92],binds,binds
GGAGUAGAAAAGACCAAUGUGGGUUCUUUUUUAUUUUGUCUUAAUAACUCUAAACCACAGACAAAUAUAAAUUGGAAAUCAACGUAAUAAUCGUAUUUCCUAUUACAAUAAUCGAGAUAUUGUCACACCCUGAAAUAUAAUUGUAAUGCAAUUAACCUAUAGAUGAAAAACUGU [rli143],binds,binds
